# Test results taken from paper PMC11624207, “Human PC4 supports telomere stability and viability in cells utilizing the alternative lengthening of telomeres mechanism”.
# Target: PC4wt (His-tagged) (human, UniProt P53999 1-127)
# Assay: EMSA; EMSA: 50 mM HEPES pH 8, 1 mM DTT, 100 mM NaCl, 0.01% BSA, 2% glycerol; 20 min on ice then 10 min at 25 C; native 8% PAGE, 0.5x TBE, 4 C
# Conditions: protein: recombinant, tags: N-terminal 6xHis, chain copies: 2, label: 5'-32P, single strand
Binder,binding result,also measured
CCCTAACCCTAACCCTAACCCTAACCCTAA (ssDNA) [telomeric C-rich (CCCTAA)5],binds,–
TTAGGGTTAGGGTTAGGGTTAGGGTTAGGG (ssDNA) [telomeric G-rich (TTAGGG)5],–,binding result (G4-capable): binds
GGACTCTAGCGTGGATCCTTAAGCTAGAAT (ssDNA) [unrelated oligonucleotide],binds,–
TTACGGTTACGGTTACGGTTACGGTTACGG (ssDNA) [mutant telomeric G-rich (TTACGG)5],–,binding result (unable to form G4): binds
